Where a chain is given by its changes, count along the chain named. Several values for one entry are separate records, joined by “and”; a condition that tells them apart may be missing. Equal entries are not always repeated.
How the values were obtained:
[1] = molecular target: T1, human C4b (human) (UniProt P0C0L4)
T1 sequence: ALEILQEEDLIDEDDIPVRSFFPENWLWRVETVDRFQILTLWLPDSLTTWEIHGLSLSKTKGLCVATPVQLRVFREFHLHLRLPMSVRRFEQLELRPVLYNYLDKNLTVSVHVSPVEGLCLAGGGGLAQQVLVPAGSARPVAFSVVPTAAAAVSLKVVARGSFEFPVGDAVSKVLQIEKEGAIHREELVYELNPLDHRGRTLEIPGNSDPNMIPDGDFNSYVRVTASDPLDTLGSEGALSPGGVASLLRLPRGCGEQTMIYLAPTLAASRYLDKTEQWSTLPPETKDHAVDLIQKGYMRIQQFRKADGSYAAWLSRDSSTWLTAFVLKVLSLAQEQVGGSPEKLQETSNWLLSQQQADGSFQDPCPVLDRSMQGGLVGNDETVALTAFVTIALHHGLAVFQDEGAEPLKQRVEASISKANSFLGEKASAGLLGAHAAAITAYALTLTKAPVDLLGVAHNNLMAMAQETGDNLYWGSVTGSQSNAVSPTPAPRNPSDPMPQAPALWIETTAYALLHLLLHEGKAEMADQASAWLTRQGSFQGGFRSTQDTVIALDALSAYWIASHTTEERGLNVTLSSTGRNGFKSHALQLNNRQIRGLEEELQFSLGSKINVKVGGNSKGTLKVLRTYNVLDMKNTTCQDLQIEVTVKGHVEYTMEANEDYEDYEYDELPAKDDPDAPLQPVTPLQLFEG

[2] = molecular target: soluble human C3b (human) (UniProt P01024)
[3] = molecular target: T1, human C4b (human); remark: listed apart in the source
[4] = molecular target: T2, human C4b (human) (UniProt P0C0L5)
T2 sequence: T1 sequence with A151T, D317G, P364L, C365S, L368I, D369H, N420S, V451A, L454R, S530A

Substance | C4c EC50 (nM) [1] [nM] | iC3b Screen Ref Fold (fold of CFI-HSA wild type) [2] | C4c EC50 [1] [µM] | C4b Screen Ref Fold (fold of CFI-HSA wild type) [4] | further results
CFI-HSA variant Y408F; E457G; E461Q; F464Y; N531G (enzyme) | 15.1 | 1.81 | – | – | C4b Screen Ref Fold (fold of CFI-HSA wild type) [3]: 4.43
CFI-HSA variant G406D; N531G; P535A (enzyme) | – | – | 0.129 | – | iC3b Screen Ref Fold (fold of reference) [2]: 0.88; C4b Screen Ref Fold (fold of reference) [3]: 5.98
CFI-HSA variant Y408F; E457G; E461Q; N531G (enzyme) | 51 | 1.42 | – | – | C4b Screen Ref Fold (fold of CFI-HSA wild type) [3]: 4.63
CFI-HSA variant Y408L; E457G; E461Q; R462K; E530F; N531G; P558S (enzyme) | 148 | 1.81 | – | – | C4b Screen Ref Fold (fold of CFI-HSA wild type) [3]: 3.96
CFI-HSA variant G406D; N531G (enzyme) | – | – | 0.124 | – | iC3b Screen Ref Fold (fold of reference) [2]: 0.83; C4b Screen Ref Fold (fold of reference) [3]: 6.15
CFI-HSA variant Y408F; E416A; E457G; E461Q; R462K; N531G (enzyme) | 11.5 | 1.99 | – | – | C4b Screen Ref Fold (fold of CFI-HSA wild type) [3]: 4.51
CFI-HSA variant E457G; E461Q; K504H; N531G (enzyme) | 39 | 1.2 | – | – | C4b Screen Ref Fold (fold of CFI-HSA wild type) [3]: 3.91
CFI-HSA variant E457G; E461Q; R462K; F464Y; N531G; R557K (enzyme) | 12.4 | 1.49 | – | – | C4b Screen Ref Fold (fold of CFI-HSA wild type) [3]: 4.47
CFI-HSA variant E416A; E457G; E461Q; F464Y; N531G (enzyme) | 12 | 1.79 | – | – | C4b Screen Ref Fold (fold of CFI-HSA wild type) [3]: 4.74
CFI-HSA variant G406K (enzyme) | – | – | 0.183 | – | iC3b Screen Ref Fold (fold of reference) [2]: 1.28; C4b Screen Ref Fold (fold of reference) [3]: 0.77
CFI-HSA variant E457P (enzyme) | > 1000 | – | – | – | iC3b Screen Ref Fold (fold of reference) [2]: 0.07; C4b Screen Ref Fold (fold of reference) [3]: 0.01
CFI-HSA variant T346R; Y408L; N531G (enzyme) | – | – | 0.204 | – | iC3b Screen Ref Fold (fold of reference) [2]: 0.93; C4b Screen Ref Fold (fold of reference) [3]: 3.42
CFI-HSA variant N531Q (enzyme) | 310 | – | – | – | iC3b Screen Ref Fold (fold of reference) [2]: 0.69; C4b Screen Ref Fold (fold of reference) [3]: 3.46
CFI-HSA variant E457G; E461Q; E530F; N531G; P558S (enzyme) | 17.8 | 1.37 and 1.5 | – | – | C4b Screen Ref Fold (fold of CFI-HSA wild type) [3]: 4.57 and 4.37
CFI-HSA variant E461T (enzyme) | 125 | – | – | – | iC3b Screen Ref Fold (fold of reference) [2]: 1.53; C4b Screen Ref Fold (fold of reference) [3]: 3.24
CFI-HSA variant Y408L; N531G; E457G; E461Q (enzyme) | 84.8 | – | – | – | iC3b Screen Ref Fold (fold vs CFI-HSA wild type) [2]: 0.39; C4b Screen Ref Fold (fold vs CFI-HSA wild type) [4]: 4.63
CFI-HSA variant Y408L; E457G; N531G; E416A (enzyme) | 34.8 | 2.15 | – | 4.66 | –
CFI-HSA variant S552G; Y553H (enzyme) | – | 0.26 | 0.0745 | 2.53 | –
CFI-HSA variant N531G; P535G; K534Q (enzyme) | – | 0.93 | 0.118 | 4.47 | –
WT; GGSSGG (SEQ ID NO: 6); CR1(ccp15-17); GGSSGG (SEQ ID NO: 6); fH(ccp1-4) (enzyme) | 60.3 | – | – | – | iC3b Screen Ref Fold (fold vs CFI-HSA wild type) [2]: 0.08; C4b Screen Ref Fold (fold vs CFI-HSA wild type) [4]: 2.96
CFI-HSA variant S552G; P558S (enzyme) | – | 2.1 | 0.375 | 1.96 | –
CFI-HSA variant Y408F; N531G (enzyme) | 75.7 | – | – | – | iC3b Screen Ref Fold (fold vs CFI-HSA wild type) [2]: 1.24; C4b Screen Ref Fold (fold vs CFI-HSA wild type) [4]: 5.78
CFI-HSA variant Y408L; E457G; N531G; N422K (enzyme) | – | 0.95 | 0.0484 | 3.66 | –
CFI-HSA variant Y408L; N531G; D425K (enzyme) | – | 1.43 | 0.0501 | 4.99 | –
CFI-HSA variant Y408L; N531G; E457G; R462K; F464Y (enzyme) | 45.8 | – | – | – | iC3b Screen Ref Fold (fold vs CFI-HSA wild type) [2]: 0.84; C4b Screen Ref Fold (fold vs CFI-HSA wild type) [4]: 6.16
CFI-HSA variant E487K (enzyme) | – | 1.35 | 0.119 | 1.11 | –
CFI-HSA variant Y408L; N531G; N422K (enzyme) | – | 1.94 | 0.0837 | 3.78 | –
CFI-HSA variant E457G; P535G; K534Q (enzyme) | – | 0.82 | 0.154 | 3.85 | –
CFI-HSA variant Y408L; N531G; E457G; E461Q; R462K; F464Y (enzyme) | 82.1 | – | – | – | iC3b Screen Ref Fold (fold vs CFI-HSA wild type) [2]: 0.46; C4b Screen Ref Fold (fold vs CFI-HSA wild type) [4]: 5.37
CFI-HSA variant Y408L; N531G; D425R; E416A (enzyme) | 60.6 | 2.15 | – | 1.41 | –

Further lines, with some results ahead:

C4c EC50 (nM) [1] [nM] | iC3b Screen Ref Fold (fold of CFI-HSA wild type) [2] | C4c EC50 [1] [µM] | C4b Screen Ref Fold (fold of CFI-HSA wild type) [4] | Substance | further results
10.6 | 2.17 | – | – | CFI-HSA variant E457G; E461Q; F464Y; N531G; R557K (enzyme) | C4b Screen Ref Fold (fold of CFI-HSA wild type) [3]: 4.54
176 | – | – | – | CFI-HSA variant N531S (enzyme) | iC3b Screen Ref Fold (fold of reference) [2]: 1.16; C4b Screen Ref Fold (fold of reference) [3]: 2.21
14.4 | 1.9 | – | – | CFI-HSA variant Y408F; E457G; E461Q; R462K; N531G (enzyme) | C4b Screen Ref Fold (fold of CFI-HSA wild type) [3]: 4.58
77.2 | – | – | – | CFI-HSA variant N531D (enzyme) | iC3b Screen Ref Fold (fold of reference) [2]: 1.52; C4b Screen Ref Fold (fold of reference) [3]: 4.91
27.5 | 0.84 | – | – | CFI-HSA variant Y408L; E457G; E461Q; R462K; K504H; N531G (enzyme) | C4b Screen Ref Fold (fold of CFI-HSA wild type) [3]: 3.83
44.1 | – | – | – | CFI-HSA variant N531G; E457G; E461Q; F464Y (enzyme) | iC3b Screen Ref Fold (fold vs CFI-HSA wild type) [2]: 0.27; C4b Screen Ref Fold (fold vs CFI-HSA wild type) [4]: 6.8
– | 1.28 | 0.126 | 4.19 | CFI-HSA variant N531G; P535G (enzyme) | –
– | 1.21 | 0.103 | 5.47 | CFI-HSA variant Y408L; E457G; D425K (enzyme) | –
– | 0.97 | 0.0838 | 5.24 | CFI-HSA variant Y408L; E457G; K534Q (enzyme) | –
– | 1.38 | 0.104 | 1.47 | CFI-HSA variant E487A (enzyme) | –
– | 1.35 | 0.0789 | 4.53 | CFI-HSA variant N531G; P535G; D425K (enzyme) | –
– | 0.95 | 0.136 | 3.82 | CFI-HSA variant N531G; P535G; P558S (enzyme) | –
– | 0.66 | 0.108 | 3.5 | CFI-HSA variant S552G; Y553H; V565I; P558S (enzyme) | –
– | 0.81 | 0.186 | 3.18 | CFI-HSA variant E457G; P535G; P558S (enzyme) | –
